From US8143228B2, “Agents capable of downregulating an MSF-A dependent HIF-1α and use thereof in cancer treatment” (Medical Research Fund of Tel Aviv Sourasky Medical Center, priority 2004, dated 2012)

Assays:
[1] = test system: PC-3 cells; assay: Plating efficiency assay; assay type: cell-based; settings: PC-3-MSF-A cells; PC-3-Neo 16.8%, p<0.001
Procedure: Plating Efficiency assay—PC-3-Neo and PC-3-MSF-A cells were cultured in 100 mm-diameter plate (1000 cells/plate) and incubated to allow colony formation. The cultures were monitored on a daily basis and when colonies were visible (approximately after 2 weeks) cells were fixed and stained with 90% EtOH, 5% Acetic acid, 0.01% Coomassie brilliant blue (Sigma-Aldrich, Saint Louis, Mo.). Plating was done in triplicates. Colonies containing ≧20 cells were counted. Plating efficiency (%) was calculated as number of colonies formed/number of cells plated×100.

[2] = test system: HIF-1 target genes; assay: Semi-quantitative RT-PCR of HIF-1 target genes; assay type: cell-based
Procedure: FIGS. 12a-f are RT-PCR analyses depicting HIF-1α mediated activation of various genes in cells transfected with the expression vector alone (Neo) or the MSF-A expression vector (MSF-A). Total RNA was isolated from PC-3-Neo and PC-3-MSF-A cells grown under normoxic (lanes 1 and 2) and hypoxic (lanes 3 and 4) conditions. Semi-quantitative RT-PCR analysis was performed using VEGF, Glut-1, ET-1, CA-IX, HIF-1α and β-actin primers (SEQ ID NOs:4200-4211 as described under General Materials and Experimental Methods). Lane 1—Neo, lane 2—MSF-A, lane 3—Neo, lane 4—MSF-A, lane 5—water (negative control).
Isolation and analysis of RNA—Total RNA was extracted from cells by using RNeasy Mini Kit (Qiagen Inc., Valencia, Calif.) according to the manufacturer's protocol. Total RNA from xenograft-derived tumors, which were frozen in liquid N2 immediately after dissection, was prepared using TRI REAGENT (Sigma-Aldrich Co., Saint Louis, Mo.) following the manufacturer's instructions. One μg total RNA was reverse transcribed into cDNA using Reverse-iT 1st Strand Synthesis Kit (ABgene, Epsom, United Kingdom) using anchored oligo dT as first strand primer. […] Semi-quantitative RT-PCR was performed using […] as an internal control to normalize gene expression for the PCR templates. […]

[3] = molecular target: T1, HIF-1α protein (Homo sapiens, UniProt Q16665); assay: Co-immunoprecipitation / immunoblotting with HIF-1α in transfected HEK 293 cells; assay type: binding; settings: transient transfection
T1 construct: expressed in transfected cells; host or cells: HEK 293
T1 sequence (Q16665 whole entry): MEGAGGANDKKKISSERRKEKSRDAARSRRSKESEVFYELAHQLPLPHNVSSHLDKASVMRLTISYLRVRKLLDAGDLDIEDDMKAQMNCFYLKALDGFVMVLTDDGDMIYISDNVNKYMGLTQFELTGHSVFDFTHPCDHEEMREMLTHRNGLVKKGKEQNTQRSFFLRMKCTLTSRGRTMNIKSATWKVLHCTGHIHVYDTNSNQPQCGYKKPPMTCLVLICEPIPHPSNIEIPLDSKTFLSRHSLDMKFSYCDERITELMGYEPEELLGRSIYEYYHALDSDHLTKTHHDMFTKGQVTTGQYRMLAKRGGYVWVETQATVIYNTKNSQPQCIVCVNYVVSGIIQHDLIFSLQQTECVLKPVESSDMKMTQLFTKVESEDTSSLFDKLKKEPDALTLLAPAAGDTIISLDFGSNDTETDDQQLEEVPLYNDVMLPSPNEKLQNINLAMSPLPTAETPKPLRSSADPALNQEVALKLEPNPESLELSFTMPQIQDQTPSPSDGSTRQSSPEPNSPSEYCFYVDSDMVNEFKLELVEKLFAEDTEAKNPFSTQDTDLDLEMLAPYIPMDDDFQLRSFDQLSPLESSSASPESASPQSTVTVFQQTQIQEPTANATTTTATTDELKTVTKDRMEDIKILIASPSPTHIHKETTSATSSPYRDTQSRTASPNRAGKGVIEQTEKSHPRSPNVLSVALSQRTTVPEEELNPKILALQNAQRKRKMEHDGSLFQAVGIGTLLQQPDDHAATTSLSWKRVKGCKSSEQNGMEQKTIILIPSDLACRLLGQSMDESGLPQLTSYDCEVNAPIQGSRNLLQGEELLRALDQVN
Procedure: FIGS. 9a-c are Western blot analyses of FLAG (MSF-A; FIGS. 9a and b) and HIF-1α (FIG. 9c) depicting the interaction between HIF-1α and the WT or deleted forms of MSF-A. HEK 293 cells were transiently co-transfected with expression vector encoding Flag-MSF-A (WT; p3xFlag-MSF-A), Flag-ΔG (AG; p3xFlag-ΔG-MSF-A), Flag-ΔN (ΔN; p3xFlag-ΔN-MSF-A) or empty vector (EV; p3xFlag-cmv-25). After 48 hours, the cells were lysed, subjected for immunoprecipitation (IP) using HIF-1α antibody and then immunoblotted (IB) with HIF-1α or Flag antibodies. FIG. 9a—whole cell extracts (WCE) subjected to IB with the Flag antibody (MSF-A); FIG. 9b—IP prepared by the HIF-1α antibody were subjected to IB with the Flag antibody (MSF-A); FIG. 9c—IP prepared by the HIF-1α antibody were subjected to IB with the HIF-1α antibody.
Immunoblotting—Proteins (30-60 μg/lane) from WCEs were resolved by 7.5% SDS-PAGE, electro-blotted to nitrocellulose membranes and incubated with the indicated primary antibodies, followed by horseradish peroxidase-conjugated secondary antiserum (Amersham Biosciences, Piscataway, N.J.). Immunoreactivity was visualized by Amersham enhanced chemiluminescence reagent (Amersham Biosciences, Piscataway, N.J.). For sequential blotting with additional antibodies, the membranes were stripped from the first primary antibody using a restore Western blot stripping buffer (Pierce, Rockford, Ill.) and were re-probed using the second primary antibody as indicated.
Immunoprecipitation—Cells were washed twice with ice-cold PBS, lysed in 20 mM Na-HEPES, pH 7.5, 0.5% Nonidet P-40, 0.1M NaCl, 2 mM EDTA, 10% Glycerol and 2 mM DTT supplemented with protease and phosphatase inhibitors, and were subjected to immunoprecipitation using anti-HIF-1α antibody and protein G-agarose beads (Pierce, Ill.) according to the manufacturer's instructions.
To confirm the interaction between the HIF-1α and the MSF-A proteins, HEK 293 cells were transiently co-transfected with the p3xFlag-MSF-A and the pcDNA3.1-HIF-1α vectors, and were grown for 24 hours under normoxic conditions (i.e., conditions of 20% oxygen), following which whole cell extracts (WCE) were subjected to co-immunoprecipitation (IP) using anti-FLAG or anti-HIF-1α antibodies. Following IP, the proteins were subjected to SDS-PAGE and immunoblotting (IB) using the counterpart antibody. As is shown in FIGS. 3a-d, following transfection with both expression vectors (i.e., pcDNA3.1-HIF-1α and p3xFlag-MSF-A) immunoprecipitates generated using either the anti-HIF-1α antibody or the anti-Flag antibody included the reciprocal proteins, i.e., the Flag-MSF-A or HIF-1α proteins, respectively.

association with HIF-1α protein (co-immunoprecipitation) [3]: strong association
B1: MSF-A: myeloid/lymphoid leukemia septin-like fusion protein A (SEQ ID NO:3), over-expressed from the p3xFlag-MSF-A vector (protein, listed as Homo sapiens)
chain: MKKSYSGGTRTSSGRLRRLGDSSGPALKRSFEVEEVETPNSTPPRRVQTPLLRATVASSTQKFQDLGVKNSEPSARHVDSLSQRSPKASLRRVELSGPKAAEPVSRRTELSIDISSKQVENAGAIGPSRFGLKRAEVLGHKTPEPAPRRTEITIVKPQESAHRRMEPPASKVPEVPTAPATDAAPKRVEIQMPKPAEAPTAPSPAQTLENSEPAPVSQLQSRLEPKPQPPVAEATPRSQEATEAAPSCVGDMADTPRDAGLKQAPASRNEKAPVDFGYVGIDSILEQMRRKAMKQGFEFNIMVVGQSGLGKSTLINTLFKSKISRKSVQPTSEERIPKTIEIKSITHDIEEKGVRMKLTVIDTPGFGDHINNENCWQPIMKFINDQYEKYLQEEVNINRKKRIPDTRVHCCLYFIPATGHSLRPLDIEFMKRLSKVVNIVPVIAKADTLTLEERVHFKQRITADLLSNGIDVYPQKEFDEDSEDRLVNEKFREMIPFAVVGSDHEYQVNGKRILGRKTKWGTIEVENTTHCEFAYLRDLLIRTHMQNIKDITSSIHFEAYRVKRLNEGSSAMANGVEEKEPEAPEM
modifications: 3xFlag tag
plating efficiency [1]: 49.3%
HIF-1α mRNA level ([2]; PC-3-MSF-A and PC-3-Neo cells): unchanged
VEGF mRNA levels ([2]; PC-3-MSF-A vs PC-3-Neo cells): significantly higher
